{"source": "paper PMC3482499", "biological_target": "T1, Cra (Escherichia coli O157:H7 (EHEC) 86-24) (UniProt P0ACP3)", "T1 sequence": "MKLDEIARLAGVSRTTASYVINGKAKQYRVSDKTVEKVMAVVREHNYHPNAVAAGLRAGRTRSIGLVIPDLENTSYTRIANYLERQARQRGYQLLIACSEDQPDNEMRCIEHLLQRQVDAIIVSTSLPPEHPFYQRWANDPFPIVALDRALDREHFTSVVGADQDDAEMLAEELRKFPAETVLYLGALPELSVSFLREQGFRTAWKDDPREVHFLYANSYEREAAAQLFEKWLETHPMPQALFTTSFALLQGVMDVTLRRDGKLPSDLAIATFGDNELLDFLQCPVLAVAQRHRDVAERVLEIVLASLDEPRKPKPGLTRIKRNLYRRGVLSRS", "assay": "competition"}
{"sequence": "TCGGATCCCATGTGCTGCGACTGCGTTCGCTTACCCCAATCACTTACTTATGTAAGCTCCTGGGGATTCACTCGCTTGCCGCCTTCCTGTAACTCGAATTAAGTAGAGTATAGTGAAACGGTTCAGCTTGGTTTTTATTCTGTTTTATTTGTTTATGCAATGAGATCTATCTTATAAAGAGAAACGCTTAACTAAATGGAAATGCGAATTCGA (double strand) [ler probe aa (-450 to -255)]", "values": [{"measurement": "binding", "result": "binds"}]}
